In US20210002644, “ANTI-CHYMASE APTAMER AND USE FOR SAME” (RIBOMIC INC., published 2021):

Assays:
[1] = target: T1, chymase (recombinant, SIGMA) (UniProt P23946); assay: inhibition; conditions: 2'-F pyrimidines (U, C); negative control pool, no inhibition
T1 sequence: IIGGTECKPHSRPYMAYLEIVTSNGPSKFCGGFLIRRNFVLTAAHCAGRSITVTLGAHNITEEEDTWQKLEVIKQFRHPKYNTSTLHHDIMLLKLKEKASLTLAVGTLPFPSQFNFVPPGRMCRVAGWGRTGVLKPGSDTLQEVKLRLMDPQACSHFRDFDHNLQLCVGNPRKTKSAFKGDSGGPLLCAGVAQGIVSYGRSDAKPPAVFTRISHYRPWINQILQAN

[2] = target: T2, chymase (recombinant, SIGMA) (UniProt P23946 P23946:22-247); assay: inhibition; Suc-AAPF-MCA substrate, 37 C; conditions: tags: SIGMA recombinant
T2 sequence: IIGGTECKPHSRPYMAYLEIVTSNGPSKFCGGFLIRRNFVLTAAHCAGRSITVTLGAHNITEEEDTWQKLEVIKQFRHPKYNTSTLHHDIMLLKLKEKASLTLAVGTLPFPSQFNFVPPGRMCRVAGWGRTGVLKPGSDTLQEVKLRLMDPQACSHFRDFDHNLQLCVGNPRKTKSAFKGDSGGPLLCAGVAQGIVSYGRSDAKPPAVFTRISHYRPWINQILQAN
Experimental: (§1) By detecting the fluorescence of this AMC, the enzyme activity of chymase can be determined. The assay was performed using a 96-well plate (F16 Black Maxisorp Fluoronunc, manufactured by Nunc), with a reaction mixture volume of 100 μL, in solution C as a buffer solution. Here, the solution C is a mixed solution of 145 mM sodium chloride, 5.4 mM potassium chloride, 1.8 mM calcium chloride, 0.8 mM magnesium chloride, 20 mM Tris (pH 7.6), and 0.05% Tween20. First, nucleic acid was serially diluted in solution C to obtain 50 μL solutions. After 10 μL of the 1 mM substrate prepared in solution C was added thereto, the plate was set to the microplate reader SpectraMax190 (manufactured by Molecular Devices Corporation), and incubated at 37° C. for 5 minutes. Separately, 0.05 μg of chymase (recombinant, manufactured by SIGMA) was diluted in solution C to obtain a 40 μL chymase solution, and incubated at 37° C. for 5 minutes. The chymase solution was added to the mixture of the nucleic acid and substrate to initiate an enzyme reaction. The final chymase concentration in the reaction mixture was 16.7 nM, the final substrate concentration being 100 μM. The plate containing the reaction mixture was set to the microplate reader SpectraMax190 (manufactured by Molecular Devices Corporation), and examined for time-dependent changes in the fluorescence intensity at 37° C. for 5 minutes (or 30 minutes) (excitation wavelength 380 nm, detection wavelength 460 nm). A linear approximation of the increase in the fluorescence of the AMC released from the substrate by chymase activity was generated, and its slope was taken as the initial velocity […]. For control, samples were treated and analyzed in the same manner in two cases: use of a 30N (a nucleotide of 30 consecutive bases represented by N; N is A, G, C or T) nucleic acid pool (negative control), and use of chymostatin, a known chymotrypsin-like serine protease inhibitor (positive control). Taking the initial reaction velocity without the nucleic acid and inhibitor (V₀) as a 100% enzyme activity, the inhibitory rate of each test substance was calculated using the following equation: […]

[3] = target: T2, chymase (recombinant, SIGMA); assay: inhibition; Suc-AAPF-MCA substrate, 0.005 ug chymase, single measurement; conditions: tags: SIGMA recombinant
Experimental: as §1, with “The” for “By detecting the fluorescence of this AMC, the enzyme activity of chymase can be determined. The”
In the evaluation of SEQ ID NO: 21-25, a method similar to the evaluation method of inhibitory activity against chymase shown in Example 1 by using MCA as a substrate except that the amount chymase was changed from 0.05 μg to 0.005 μg was used for measurement.

[4] = target: T3, chymase (native, human skin mast cell) (Homo sapiens, UniProt P23946 P23946:22-247); assay: inhibition; angiotensin I substrate; second G of GGGG 2'-OMe; conditions: tags: Calbiochem Human Skin
T3 sequence: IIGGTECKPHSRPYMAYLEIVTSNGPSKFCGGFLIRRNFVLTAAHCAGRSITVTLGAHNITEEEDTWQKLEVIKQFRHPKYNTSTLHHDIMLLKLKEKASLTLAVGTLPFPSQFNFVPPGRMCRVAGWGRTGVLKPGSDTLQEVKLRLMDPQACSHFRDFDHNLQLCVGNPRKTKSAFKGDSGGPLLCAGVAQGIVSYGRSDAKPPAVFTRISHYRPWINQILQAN
Experimental: (§2) The total volume of solution for an enzyme reaction in the assay was set to 50 μL, and the reaction was performed in solution C buffer. At first, native (manufactured by Calbiochem) was diluted with solution C to give 5 μL thereof. Here, the native is chymase purified from human skin mast cell. The nucleic acid was serially diluted with solution C at a concentration of 0.0027-2 μM to give 25 μL thereof. The chymase solution (5 μL) and the nucleic acid solution (25 μL) were mixed, and the mixture was incubated at 37° C. for 5 min. On the other hand, […] angiotensin I (manufactured by PEPTIDE […], INC.) was prepared in solution C to give 20 μL thereof, which was incubated at 37° C. for 5 min. […] The whole mixture was centrifuged at 4° C., 14000 rpm for 10 min, and the supernatant (30 μL) was used for the next fluorescence induction reaction.
(§3) The above-mentioned supernatant (30 μL) was added to a 96 well plate (black, manufactured by Costar), a solution (15 μL) of 2% o-phthalaldehyde (manufactured by SIGMA) in methanol and 0.3M NaOH solution (170 μL) were added to each well, and the mixture was incubated at room temperature for 10 min. […] The plate was set on a microplate reader SpectraMax190 (manufactured by Molecular device) and the fluorescence intensity was measured at an excitation wavelength of 355 nm and a fluorescence wavelength of 460 nm. […]

[5] = target: T3, chymase (native, human skin mast cell); assay: inhibition; angiotensin I substrate, 37 C; conditions: tags: Calbiochem Human Skin
Experimental: as §2, §3

[6] = target: T3, chymase (native, human skin mast cell); assay: inhibition; angiotensin I substrate, 37 C; conditions: tags: Calbiochem Human Skin; remark: listed apart in the source
Experimental: Whether the nucleic acids shown by SEQ ID NO: 9 and 10 inhibit the enzyme activity of chymase was determined by the following method. Angiotensin I is converted by chymase to angiotensin II, during which a peptide fragment His-Leu is released. Since the peptide His-Leu is fluorescently derivatized by o-phthalaldehyde, its fluorescence intensity can be quantitatively measured.
The total volume of solution for an enzyme reaction in the assay was set to 50 μL, and the reaction was performed in solution C buffer. At first, native (manufactured by Calbiochem) was diluted with solution C to give 5 μL thereof. Here, the native is chymase purified from human skin mast cell. […] The whole mixture was centrifuged at 4° C., 14000 rpm for 10 min, and the supernatant (30 μL) was used for the next fluorescence induction reaction.
The above-mentioned supernatant (30 μL) was added to a 96 well plate (black, manufactured by Costar), a solution (15 μL) of 2% o-phthalaldehyde (manufactured by SIGMA) in methanol and 0.3M NaOH solution (170 μL) were added to each well, and the mixture was incubated at room temperature for 10 min. […] The plate was set on a microplate reader SpectraMax190 (manufactured by Molecular device) and the fluorescence intensity was measured at an excitation wavelength of 355 nm and a fluorescence wavelength of 460 nm.

[7] = target: T2, chymase (recombinant, SIGMA); assay: inhibition; Suc-AAPF-MCA substrate, 37 C, 1.8 mM Ca, 0.8 mM Mg, pH 7.6; conditions: tags: SIGMA recombinant
Experimental: By detecting the fluorescence of this AMC, the enzyme activity of chymase can be determined. The assay was performed using a 96-well plate (F16 Black Maxisorp Fluoronunc, manufactured by Nunc), with a reaction mixture volume of 100 μL, in solution C as a buffer solution. Here, the solution C is a mixed solution of 145 mM sodium chloride, 5.4 mM potassium chloride, 1.8 mM calcium chloride, 0.8 mM magnesium chloride, 20 mM Tris (pH 7.6), and 0.05% Tween20. First, nucleic acid was serially diluted in solution C to obtain 50 μL solutions. After 10 μL of the 1 mM substrate prepared in solution C was added thereto, the plate was set to the microplate reader SpectraMax190 (manufactured by Molecular Devices Corporation), and incubated at 37° C. for 5 minutes. […] The plate containing the reaction mixture was set to the microplate reader SpectraMax190 (manufactured by Molecular Devices Corporation), and examined for time-dependent changes in the fluorescence intensity at 37° C. for 5 minutes (or 30 minutes) (excitation wavelength 380 nm, detection wavelength 460 nm). A linear approximation of the increase in the fluorescence of the AMC released from the substrate by chymase activity was generated, and its slope was taken as the initial velocity […]. […]

[8] = target: T3, chymase (native, human skin mast cell); assay: inhibition; angiotensin I substrate; table prints length 32 though SEQ 33 is 31 nt; conditions: tags: Calbiochem Human Skin
Experimental: The total volume of solution for an enzyme reaction in the assay was set to 50 μL, and the reaction was performed in solution C buffer. At first, native (manufactured by Calbiochem) was diluted with solution C to give 5 μL thereof. Here, the native is chymase purified from human skin mast cell. The nucleic acid was serially diluted with solution C at a concentration of 0.0027-2 μM to give 25 μL thereof. The chymase solution (5 μL) and the nucleic acid solution (25 μL) were mixed, and the mixture was incubated at 37° C. for 5 min. On the other hand, […] angiotensin I (manufactured by PEPTIDE […], INC.) was prepared in solution C to give 20 μL thereof, which was incubated at 37° C. for 5 min. The angiotensin I solution was added to a mixture of chymase and nucleic acid to start an enzyme reaction. The final chymase concentration of the reaction solution was 0.5 nM, and the final substrate concentration was 50 μM. After reaction at 37° C. for 90 min, ice-cooled 30% trichloroacetic acid solution (25 μL) was added to quench the reaction. The whole mixture was centrifuged at 4° C., 14000 rpm for 10 min, and the supernatant (30 μL) was used for the next fluorescence induction reaction.

UCACACUAGCACGCAUAGGNNNNNNNNNNNNNNNNNNNNNNNNNNNNNNCAUCUGACCUCUCUCCUGCUCCC [30N nucleic acid pool]
IC50 [1]: > 500 nM

B1: SEQ ID NO: 3 (ssRNA)
RNA: GGGAGCAGGAGAGAGGUCAGAUGAUAACCAGUUGGGGGGUCAAUUACAUGGGACCUAUGCGUGCUAGUGUGA
modifications: 2'-F pyrimidines (U, C); purines 2'-OH
IC50 [2]: 26 nM

B2: SEQ ID NO: 22 (ssRNA)
RNA: GGCAGAUGAUCGGACAUAACAGUUAGAUAGAGUUAAAAACUGGGGUGUCAA
modifications: 2'-F pyrimidines (inferred)
IC50 [3]: 5 nM

B3: SEQ ID NO: 21 (ssRNA)
RNA: GGCAGAUGAUCGGACAUAACAGGUUAGAUAGAGUUAAAAACCUGGGGUGUCAA
modifications: 2'-F pyrimidines (inferred)
IC50 [3]: 5.7 nM

B4: SEQ ID NO: 23 (ssRNA)
RNA: GGCAGAUGAUCGGACAUAACAGUAGAUAGAGUUAAAACUGGGGUGUCAA
modifications: 2'-F pyrimidines (inferred)
IC50 [3]: 7.8 nM

B5: SEQ ID NO: 17(1) (ssRNA)
RNA: GAUGAUCGGACAUAACAUUGUUGGGGUGUCAA
modifications: GAU(F)GAU(F)C(F)GGAC(F)AU(F)AAC(F)AU(F)U(F)GU(F)U(F)G(M)G(M)GGU(F)GU(F)C(F)AA (F=2'-F, M=2'-OMe)
IC50 [4]: 44.4 nM

B6: SEQ ID NO: 17(3) (ssRNA)
RNA: GAUGAUCGGACAUAACAUUGUUGGGGUGUCAA
modifications: idT-G(M)A(M)U(F)G(M)A(M)U(F)C(F)G(M)G(M)A(M)C(F)A(M)U(F)AAC(F)AU(F)U(F)G(M)U(F)U(F)GG(M)G(M)G(M)U(F)G(M)U(F)C(F)A(M)A(M)-idT (F=2'-F, M=2'-OMe)
IC50 [4]: 5.66 nM

B7: SEQ ID NO: 25 (ssRNA)
RNA: GGCAGAUGAUCGGACAUAACAAGAUAGAGUUAAAUGGGGUGUCAA
modifications: 2'-F pyrimidines (inferred)
IC50 [3]: 5.8 nM

B8: SEQ ID NO: 2 (ssRNA)
RNA: GGGAGCAGGAGAGAGGUCAGAUGAUCGGACAUAACAUUGUUGGGGUGUCAAGGCCUAUGCGUGCUAGUGUGA
modifications: 2'-F pyrimidines (U, C); purines 2'-OH
IC50 [5]: 10 nM | IC50 [2]: 31 nM

B9: SEQ ID NO: 4 (ssRNA)
RNA: GGGAGCAGGAGAGAGGUCAGAUGUAACUCUAUUGAGGGGCAUCAGCACAGUAGCCUAUGCGUGCUAGUGUGA
modifications: 2'-F pyrimidines (U, C); purines 2'-OH
IC50 [2]: 10.8 nM

B10: SEQ ID NO: 10 (ssRNA)
RNA: GGGAACGAAGCGACAGACCGAAUCAGAAGUUCAACAUGGACAUAACAUCGAUGGGGUGUCAAGUACUGACGACAGA
modifications: 2'-F pyrimidines (U, C); purines 2'-OH
IC50 [6]: 0.43 nM

B11: SEQ ID NO: 1 (ssRNA)
RNA: GGGAGCAGGAGAGAGGUCAGAUGAGCAUGCUUUUUGGUAACCGAUAAUGGGGGCCUAUGCGUGCUAGUGUGA
modifications: 2'-F pyrimidines (U, C); purines 2'-OH
IC50 [7]: 41 nM

B12: SEQ ID NO: 6 (ssRNA)
RNA: GGGAGCAGGAGAGAGGUCAGAUGUCAUGACUUAUAGGUAACCGAUAAUGGGGGCCUAUGCGUGCUAGUGUGA
modifications: 2'-F pyrimidines (U, C); purines 2'-OH
IC50 [2]: 5.5 nM

B13: SEQ ID NO: 33 (ssRNA)
RNA: AUGAUCGGACAUAACUAAUUAGGGGUGUCAA
modifications: 2'-F pyrimidines (U, C); purines 2'-OH
IC50 [8]: 0.21 nM

B14: SEQ ID NO: 5 (ssRNA)
RNA: GGGAGCAGGAGAGAGGUCAGAUGAUGACCGAUUAUAGGUAACCACUUAGGGGGCCUAUGCGUGCUAGUGUGA
modifications: 2'-F pyrimidines (U, C); purines 2'-OH
IC50 [2]: 7 nM

B15: SEQ ID NO: 8 (ssRNA)
RNA: GGGAGCAGGAGAGAGGUCAGAUGAUUGACGACUAUAGGUAACCUUUACGGGGGCCUAUGCGUGCUAGUGUGA
modifications: 2'-F pyrimidines (U, C); purines 2'-OH
IC50 [2]: 35 nM

B16: SEQ ID NO: 24 (ssRNA)
RNA: GGCAGAUGAUCGGACAUAACAUAGAUAGAGUUAAAAUGGGGUGUCAA
modifications: 2'-F pyrimidines (inferred)
IC50 [3]: 3.7 nM

B17: SEQ ID NO: 7 (ssRNA)
RNA: GGGAGCAGGAGAGAGGUCAGAUGUUUGGUAGUAACUGGAAUAGGGGCUACAGGCCUAUGCGUGCUAGUGUGA
modifications: 2'-F pyrimidines (U, C); purines 2'-OH
IC50 [2]: 52 nM
